Test results from patent US20220363718A1.
*1 amine or outer side, *2 acyl side, *3 side chain or, on linkers, in order; H or OH if unused. Bridges are numbered along the chain shown (N, C = ends). [ ]: non-standard residue; d: D form. TATA = O=C(CC[*:1])N1CN(C(=O)CC[*:2])CN(C(=O)CC[*:3])C1; Trp(1-Me) = Cn1cc(C[C@H](N)C(=O)O)c2ccccc21; Arg(Me2a) = CN(C)C(=N)NCCC[C@H](N)C(=O)O; Phe(4-F) = N[C@@H](Cc1ccc(F)cc1)C(=O)O; tBuAla = CC(C)(C)C[C@H](N)C(=O)O; NMeD = CN[C@@H](CC(=O)O)C(=O)O; NMeA = CN[C@@H](C)C(=O)O

Target: Biotinylated human TSLP (human)
Sequence (chain, as listed by the source limits assumed): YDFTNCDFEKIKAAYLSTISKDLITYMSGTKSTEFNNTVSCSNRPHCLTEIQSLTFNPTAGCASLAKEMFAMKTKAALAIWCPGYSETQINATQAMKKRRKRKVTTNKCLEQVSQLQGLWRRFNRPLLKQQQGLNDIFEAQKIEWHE
Test: SPR, biotinylated hTSLP on streptavidin chip

B1: Example 13 (peptide)
peptide: CQXLEDCXXGXC
modifications: not fully specified; N-term acetyl; CQ[TrpMe]LEDC[TrpMe][ADMA]G[4-FPhe]C as printed; 3 Cys on TATA
Binder B1 has a Kd of 6 nM.

In the case of Ac-C[NMeA][Trp(1-Me)][tBuAla]Q[NMeD]C[Trp(1-Me)][Arg(Me2a)]G[Phe(4-F)]C-NH2 (linker 1-7-12 via TATA) [Example 5], the Kd is reported as 2.7 nM.
